Measurements: US6362319B1, “Glial cell line-derived neurotrophic factor” (Amgen Inc., priority 1991, dated 2002)

Tested on: dopaminergic neurons in rat embryo (E16) mesencephalic cell cultures
Experiment: Bioassay for dopaminergic neurotrophic activity: 3H-dopamine uptake in dissociated mesencephalic cell cultures
Type: cell-based
Settings: for FOLD (specific activity relative to B49 conditioned medium): purification fold over CM
Protocol: The dopaminergic activity of the GDNF is used to facilitate the purification process. […] Briefly, cultures of dissociated mesencephalic cells are prepared, either in serum rich or serum free environments. Samples to be tested for dopaminergic activity are desalted and serially added to the cell cultures and the dishes are incubated for 6 days at 37° C. in a humidified atmosphere containing 6.5% CO2. The cultures, in the presence of the testing material, are then incubated at 37° C. with tritiated dopamine (^3H-DA). The dopamine uptake is halted, the cells washed, and the dopamine uptake analyzed by scintillation counting of retained tritium in the cultures.
Culture conditions: Dissociated mesencephalic cell cultures were prepared as previously described (Friedman and Mytilineou 1987 Neurosci. Lett. 79:65-72), with minor modifications. Briefly, rostral mesencephalic tegmentum from brains of Sprague-Dawley rat embryos, at the 16th day of gestation, were dissected under the microscope in sterile conditions, collected in Ca^2+- and Mg^2+-free Dulbecco's phosphate buffered saline (Gibco, Gaithersburg, Md.) and dissociated mechanically by mild trituration. The cells were plated in 100 μl per well onto 16-mm diameter tissue culture wells (Falcon, Lincoln Park, N.J., 24-well plate) containing 400 μl medium to give a density of 2.5-3.5×10^5 cells per well. The culture wells had been previously exposed to 0.1 mg/ml solution of poly L-ornithine in 10 mM sodium borate, pH 8.4, for 3 hours at 37° C., washed 3 times in milli-Q H2O and once in Earle's balanced salt solution (Gibco). The feeding medium (10/10) consisted of minimal essential medium (MEM, Gibco) supplemented with glucose (33 mM), sodium bicarbonate (24.5 mM), glutamine (2 mM), HEPES (15 mM), penicillin G (5 U/ml), streptomycin (5 μg/ml), 10% heat-inactivated fetal calf serum (Gibco) and 10% heat inactivated horse serum (Gibco). The cultures were kept at 37° C. in a water-saturated atmosphere containing 6.5% CO2. After 3 hours, when most of the cells had adhered to the bottom of the well, the medium was replaced with 500 μl of fresh medium. At this time, a serial dilution of the sample to be assayed for GDNF activity was added to each well in duplicate and the plates were incubated in the 37° C. incubator. After a week, the cultures were treated for 24 hours with fluorodeoxyuridine (13 μg/ml) and uridine (33 μg/ml) to prevent excessive glial proliferation and subsequently fed with the above medium without fetal calf serum. The feeding medium was changed weekly.
Alternatively, chemically defined serum-free medium was used in which serum was replaced by a mixture of proteins; hormones and salts. The defined medium (DM) consisted of a mixture of MEM and F12 nutrient mixture (both Gibco, 1:1; vol/vol) with glucose (33 mM), glutamine (2 mM) NaHCO3 (24.5 mM), HEPES (15 mM), supplemented with transferrin (100 μg/ml), insulin (25 μg/ml), putrescine (60 μM), progesterone (20 nM), sodium selenite (30 nM), penicillin G (5 U/ml) and streptomycin (5 μg/ml). The osmolarity of the DM was adjusted to 325 by the addition of milli-Q H2O. (110-125 ml H2O/l). […] All assays reached in the following examples were done in serum-containing medium.
The functional status of the dopaminergic neurons may be assayed in these cultures by measuring dopamine uptake through specific “scavenger” transporters in the dopaminergic neurons and by counting the number of neurons positive for the dopamine synthetic enzyme tyrosine hydroxylase using immunohistochemistry.

B1: glial cell line-derived neurotrophic factor (protein)
chain: SNMPEDYPDQFDDVMDFIQATIKRLKRSPDKQMAVLPRRERNRQAAAANPENSRGKGRRGQRGKNRGCVLTAIHLNVTDLGLGYETKEELIFRYCSGSCDAAETTYDKILKNLSRNRRLVTDKVGQACCRPIAF
notes: dopaminergic neurotrophic protein purified from serum-free conditioned medium of rat B49 glioblastoma cells; disulfide-bonded dimer
bioactivity in dopamine uptake assay: active in stimulating dopamine uptake in both serum-containing and defined media
SP. ACT (specific activity, dopamine uptake trophic units per protein) (TU = reciprocal of dilution giving 50% of maximal stimulation of 3H-DA uptake): at least 12,000 TU/μg
concentration for half-maximal stimulation of dopamine uptake (indicated by the specific activity): approximately 60 pg/ml
FOLD (specific activity relative to B49 conditioned medium): about 24,000
FOLD (specific activity relative to B49 conditioned medium) (listed as substantially purified GDNF): at least 24,000
estimated specific activity (purified GDNF after final RP-HPLC): about 17 trophic units/ng
ED50 for increasing dopamine uptake (rat embryo (E16) mesencephalic culture): about 50 pg/ml
